Assay results taken from US20230025732A1 (INNATE PHARMA, published 2023).

Biological target: T1, CD39 mutant 19 (human, UniProt P49961 1-510)
T1 construct: expressed on Hek-293T cells; also called M19
T1 chain: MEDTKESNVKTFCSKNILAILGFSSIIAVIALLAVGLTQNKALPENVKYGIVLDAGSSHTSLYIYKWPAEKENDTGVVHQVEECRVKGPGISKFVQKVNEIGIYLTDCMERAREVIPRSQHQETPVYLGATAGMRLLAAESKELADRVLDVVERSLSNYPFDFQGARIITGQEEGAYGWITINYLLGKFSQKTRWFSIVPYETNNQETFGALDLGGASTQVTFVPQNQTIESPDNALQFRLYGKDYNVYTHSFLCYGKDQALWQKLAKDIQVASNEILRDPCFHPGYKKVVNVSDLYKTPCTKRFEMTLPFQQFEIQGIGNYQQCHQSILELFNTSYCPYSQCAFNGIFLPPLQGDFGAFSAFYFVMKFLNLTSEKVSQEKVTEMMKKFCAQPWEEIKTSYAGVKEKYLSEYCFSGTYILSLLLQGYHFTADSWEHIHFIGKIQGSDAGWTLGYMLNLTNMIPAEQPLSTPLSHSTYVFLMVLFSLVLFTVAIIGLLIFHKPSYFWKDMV
Test: flow cytometry on Hek-293T cells transfected with CD39 mutant 19 (panel M19); antibody concentration not given on the sheet
Source text: Mutants were transfected in Hek-293T cells, as shown in the table 1, using numbering of SEQ ID NO: 1. […] Mutant 19 includes substitutions at residues R138, M139 and E142.

- binding result: no binding
B1: I-394 (antibody, human IgG1, V domains shown)
VH: EVQLQQSGPELVKPGASVKMSCKASGYTFTDYNMHWVKQSHGRTLEWIGYIVPLNGGSTFNQKFKGRATLTVNTSSRTAYMELRSLTSEDSAAYYCARGGTRFAYWGQGTLVTVSA
VL: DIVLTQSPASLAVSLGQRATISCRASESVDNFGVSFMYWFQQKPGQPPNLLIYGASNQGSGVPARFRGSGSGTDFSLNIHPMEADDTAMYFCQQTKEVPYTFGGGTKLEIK
